# T1: TOM70 (full-length, recombinant, analyte of the BLI) (human, UniProt O94826 1-608)
# T1 construct: also called Mitochondrial import receptor subunit TOM70
# T1 sequence (looked up): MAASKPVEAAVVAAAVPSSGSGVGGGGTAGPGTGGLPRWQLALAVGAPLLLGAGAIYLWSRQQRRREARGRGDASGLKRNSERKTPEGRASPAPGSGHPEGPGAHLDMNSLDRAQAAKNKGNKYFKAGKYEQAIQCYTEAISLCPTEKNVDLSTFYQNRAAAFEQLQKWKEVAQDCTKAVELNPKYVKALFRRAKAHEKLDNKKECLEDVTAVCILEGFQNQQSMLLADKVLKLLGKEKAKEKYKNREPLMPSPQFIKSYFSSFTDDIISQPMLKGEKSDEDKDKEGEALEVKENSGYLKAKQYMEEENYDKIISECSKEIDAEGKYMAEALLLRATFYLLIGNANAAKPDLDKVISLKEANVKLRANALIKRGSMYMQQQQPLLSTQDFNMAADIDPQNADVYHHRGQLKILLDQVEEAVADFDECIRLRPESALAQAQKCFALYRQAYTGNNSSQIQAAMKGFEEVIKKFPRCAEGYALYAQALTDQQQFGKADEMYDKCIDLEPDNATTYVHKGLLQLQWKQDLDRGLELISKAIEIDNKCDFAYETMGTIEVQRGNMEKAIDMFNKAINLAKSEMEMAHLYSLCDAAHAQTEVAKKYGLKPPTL
# B1: SARS-CoV Orf9b, biotinylated (C-terminal Avi-His6) (natural protein)
# chain: MDPNQTNVVPPALHLVDPQIQLTITRMEDAMGQGQNSADPKVYPIILRLGSQLSLSMARRNLDSLEARAFQSTPIVVQMTKLATTEELPDEFVVVTAK
# notes: also called Biotinylated Orf9b
# Biological target: T1, TOM70 (full-length, recombinant, …)
# Test: BLI; […]; kinetics ([…]) buffer 1x PBS pH 7.4, 0.1% BSA, 0.02% Tween-20; association 5 min, dissociation 5 min; […]; 1:1 global fit
# Settings: both partners purified
binder,measurement,value
B1,Kd,41.6 ± 1.01 nM
same,koff,0.00244 s⁻¹
same,kon,58600 M⁻¹ s⁻¹
